Results on one molecule are retold here after PMC6832557, “An Enzyme- and Label-Free Fluorescence Aptasensor for Detection of Thrombin Based on Graphene Oxide and G-Quadruplex”.

The target of the data set is thrombin (bovine (plasma), UniProt P00735;P00735 318-366;367-625). In words: graphene oxide displacement fluorescence assay (NMM/G-quadruplex readout); graphene oxide, NMM; not given in the material (S incubated with GO for 30 min; NMM ex/em 399/610 nm). To be noted: protein: commercial; copies: 1;1; label: none (label-free; NMM as G4 reporter); G-quadruplex (Se part).

As for AGTCCGTGGTAGGGCAGGTTGGGGTGACTGGGTAGGGCGGGTTGGG (structured_DNA) [S (thrombin aptamer Sa + G-quadruplex part Se)], the binding result is “binds”.
